In article PMC6997370, “Significant improvement in catalytic activity and enantioselectivity of a Phaseolus vulgaris epoxide hydrolase, PvEH3, towards ortho-cresyl glycidyl ether based on the semi-rational design” (Scientific Reports, 2020) one finds Km and kcat data, which are given here for two proteins.

Numbering of substitutions follows the chain as printed. In names and notes the source's numbering stands.

Substrate in data set [1]: Cc1ccccc1OC[C@H]1CO1
Put plainly: initial hydrolysis rate by HPLC, non-linear regression. The format is biochemical, Phaseolus vulgaris. The note with it: pH 7.0 phosphate 100 mM, 20 °C, 5% methanol, 1.5-15 mM substrate. From the text:
(§1) initial hydrolysis rate by HPLC, non-linear regression on PvEH3

Substrate in data set [2]: Cc1ccccc1OC[C@@H]1CO1
The description is as above. The format is biochemical, Phaseolus vulgaris. The note with it: pH 7.0 phosphate 100 mM, 20 °C, 5% methanol, 1.5-15 mM substrate.
Excerpt: as §1

B1: PvEH3 (Phaseolus vulgaris) (protein)
chain: MEGIQHKEVEVNGIKMHVAEKGEGPVVLFLHGFPELWYSWRHQILALSSRGYRAVAPDLRGYGDTEAPASMSSYSCFDIVGDLVALIDLLGVDQVFLVAHDWGAIIGWYLCMFRPDRVKAYVCLSVPLLHRNPEIRTVDAMRAMYGDDYYICRFQKPGEMEAQMAEVGTGYVLKNILTTRKPGPPIFPKGEYGTGFNPDMTNSLPSWLSQHDLAYYVSKFQKTGFTGPLNYYRNMNPNWELTAPWSGAKIKVPVKFITGDLDMVYTSLNMKEYIHGGGFKEDVPNLEEVIVQKGVAHFNNQEAAEEINTHIYDFINKF
notes: pET-28a(+), N-terminal 6xHis tag, E. coli BL21(DE3), Ni-NTA purified; catalytic Asp101, Tyr150, Tyr232
Regarding B1, the Km in data set [1] is on record as 9.84 ± 0.28 mM; in data set [2], 6.14 ± 0.22 mM. In addition, in data set [1], the kcat amounted to 1.12 ± 0.05 s⁻¹.

B2: PvEH3 (Phaseolus vulgaris; E134K/T137P) (protein)
chain: B1 chain with E134K, T137P
notes: as for B1
Regarding B2, in data set [1], the Michaelis constant (Km) amounted to 5.40 ± 0.21 mM and the turnover number (kcat) was 1.37 ± 0.06 s⁻¹. The Km in data set [2] is given as 3.29 ± 0.15 mM.
